# Measured values reported in PMC8606822, “Novel dTDP-L-Rhamnose Synthetic Enzymes (RmlABCD) From Saccharothrix syringae CGMCC 4.1716 for One-Pot Four-Enzyme Synthesis of dTDP-L-Rhamnose” (Frontiers in Microbiology, 2021).
# T1: Ss-RmlD (Saccharothrix syringae, UniProt A0A5Q0HAF2)
# T1 construct: gene rfbD
# T1 sequence (A0A5Q0HAF2 1-297): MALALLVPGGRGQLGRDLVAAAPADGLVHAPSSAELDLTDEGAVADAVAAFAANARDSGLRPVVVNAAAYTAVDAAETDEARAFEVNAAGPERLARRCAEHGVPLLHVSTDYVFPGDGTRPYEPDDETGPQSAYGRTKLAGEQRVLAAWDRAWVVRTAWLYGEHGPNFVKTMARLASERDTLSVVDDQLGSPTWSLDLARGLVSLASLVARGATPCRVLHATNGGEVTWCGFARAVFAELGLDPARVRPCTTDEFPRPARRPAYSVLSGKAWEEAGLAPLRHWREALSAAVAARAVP
# Assays:
# Ss-RmlD = target: T1, Ss-RmlD; test: one-pot reaction with Ss-RmlABC; product yield by HPLC; assay type: biochemical; conditions: pH 8.5, 30 °C; dTDP-4-keto-rhamnose made in situ
# [1] = substrate: Cc1cn([C@H]2C[C@H](O)[C@@H](COP(=O)(O)OP(=O)(O)OP(=O)(O)O)O2)c(=O)[nH]c1=O; test: malachite green PPi release assay with inorganic pyrophosphatase; assay type: biochemical, Saccharothrix syringae; conditions: 1 mM Glc-1-P, optimal conditions (37 °C, pH 9.0, 2.5 mM Mg2+)
# [2] = substrate: O=P(O)(O)O[C@H]1O[C@H](CO)[C@@H](O)[C@H](O)[C@H]1O; test: as above; assay type: biochemical, Saccharothrix syringae; conditions: 1 mM dTTP, optimal conditions (37 °C, pH 9.0, 2.5 mM Mg2+)
# purified protein = substrate: Cc1cn([C@H]2C[C@H](O)[C@@H](COP(=O)(O)OP(=O)(O)O[C@H]3O[C@H](CO)[C@@H](O)[C@H](O)[C@H]3O)O2)c(=O)[nH]c1=O; test: purified protein; assay type: biochemical, Saccharothrix syringae; conditions: optimal conditions (50 °C, pH 7.5, 0.02 mM NAD+)
molecule,measurement,setting,value
NC(=O)C1=CN([C@@H]2O[C@H](COP(=O)(O)OP(=O)(O)OC[C@H]3O[C@@H](n4cnc5c(N)ncnc54)[C@H](OP(=O)(O)O)[C@@H]3O)[C@@H](O)[C@H]2O)C=CC1 [NADPH],one-pot reaction with Ss-RmlABC; product yield by HPLC,Ss-RmlD,NADPH was an essential cofactor for the final step of reduction catalyzed by Ss-RmlD
Ss-RmlA (Saccharothrix syringae) (protein) MKGIILAGGSGTRLHPITQAVSKQLLPVYDKPMVYYPLSVLMLAGIREILLISTPTDLPLFRRLLGDGSQFGLSVSYAEQAQPNGLAEAFVIGADFVGDDDVSLVLGDNIFYGQGFSRLLQHHAATLDGCVLFGYPVKDPERYGVGEVDATGRLVSIEEKPAAPKSNKAITGLYFYDNQVVDIARNLRPSARGELEITDVNLTYLRQGRAHLVDLGRGFAWLDTGTHDSLLEAGQFVQVLEHRQGVRIACPEEIALRMGFITADECYALGEKLAKSGYGQYVMYVAREVR,Km,[1],49.56 µM
same,kcat,[1],5.39 s⁻¹
same,Km,[2],117.30 µM
same,kcat,[2],3.46 s⁻¹
Ss-RmlB (Saccharothrix syringae) (protein) MRVLVTGGAGFIGSHYVRELVGGSYPAYADAEVVVLDKLTYAGNEANLAPVADSPRLTFVRGDICDRELVVGVMRGVDVVVHFAAESHVDRSITGSADFVLTNVLGTQVLLQAALEAGVAKFVHVSTDEVYGSIAEGSWTEDHVLEPNSPYSASKASSDLLARAFHRTHGLPVCVTRCSNNYGPYQFPEKVIPLFVTNLVDGRKVPLYGDGLNVRDWLHVDDHCRGIQLVLEGGRGGEIYNIGGGTELTNRELTARLLEATGRDWDSFVEPVEDRKGHDRRYSVDITKISTELGYAPRVDFAEGLAATVRWYRENRAWWEPLKQRAALTG,Km,purified protein,98.60 µM
same,kcat,purified protein,11.2 s⁻¹
